B1: Bacillus subtilis: xylose isomerase from donor organism Bacillus subtilis (protein, UniProt P0CI80 1-445, looked up)
Xylose isomerase: MAQSHSSSINYFGSANKVVYEGKDSTNPLAFKYYNPQEVIGGKTLKEHLRFSIAYWHTFTADGTDVFGAATMQRPWDHYKGMDLAKMRVEAAFEMFEKLDAPFFAFHDRDIAPEGSTLKETNQNLDMIMGMIKDYMRNSGVKLLWNTANMFTNPRFVHGAATSCNADVFAYAAAQVKKGLETAKELGAENYVFWGGREGYETLLNTDLKFELDNLARFMHMAVDYAKEIGYTGQFLIEPKPKEPTTHQYDTDAATTIAFLKQYGLDNHFKLNLEANHATLAGHTFEHELRMARVHGLLGSVDANQGHPLLGWDTDEFPTDLYSTTLAMYEILQNGGLGSGGLNFDAKVRRSSFEPDDLIYAHIAGMDAFARGLKVAHKLIEDRVFEDVIQHRYRSFTEGIGLEIIEGRANFHTLEQYALNHKSIKNESGRQEKLKAILNQYILEV
B2: Clostridium thermosulfurogenes: xylose isomerase from donor organism Clostridium thermosulfurogenes (protein, UniProt P19148 1-439, looked up)
Xylose isomerase: MNKYFENVSKIKYEGPKSNNPYSFKFYNPEEVIDGKTMEEHLRFSIAYWHTFTADGTDQFGKATMQRPWNHYTDPMDIAKARVEAAFEFFDKINAPYFCFHDRDIAPEGDTLRETNKNLDTIVAMIKDYLKTSKTKVLWGTANLFSNPRFVHGASTSCNADVFAYSAAQVKKALEITKELGGENYVFWGGREGYETLLNTDMEFELDNFARFLHMAVDYAKEIGFEGQFLIEPKPKEPTKHQYDFDVANVLAFLRKYDLDKYFKVNIEANHATLAFHDFQHELRYARINGVLGSIDANTGDMLLGWDTDQFPTDIRMTTLAMYEVIKMGGFDKGGLNFDAKVRRASFEPEDLFLGHIAGMDAFAKGFKVAYKLVKDRVFDKFIEERYASYKDGIGADIVSGKADFRSLEKYALERSQIVNKSGRQELLESILNQYLFAE
B3: Bacillus licheniformis: xylose isomerase from donor organism Bacillus licheniformis (protein, UniProt P77832 1-448, looked up)
Xylose isomerase: MFFRNIGMIEYEGADSENPYAFKYYNPDEFVGGKTMKEHLRFAVAYWHTFDADGKDPFGDGTMFRAWNRLTHPLDKAKARAEAAFEFFEKLGVPYFCFHDVDIVDEGATLRETFTYLDQMSSFLKEMMETSHVQLLWNTANMFTHPRYVHGAATSCNADVYAYAAAKVKKGLDIAKELGAENYVFWGGREGYETLLNTDMKLELENLSSFYRMAVEYAREIGFDGQFLIEPKPKEPTKHQYDFDAATTIAFLETYGLKDHFKLNLEANHATLAGHTFEHELRVAALHDMLGSIDANQGDLLLGWDTDEFPTDLYSAVLAMYEILKAGGFKTGGINFDAKVRRPSFADEDLFHAHIAGMDTYAVGLKVASRLLEDKALDQVIEERYESYTKGIGLEIKEGRTDLKKLAAYALENDHIENQSGRQERLKATVNRYLLNALREAPAGKETH
B4: Psudomonas savastanoi: xylose isomerase from donor organism Psudomonas savastanoi (protein, UniProt Q48J73 1-438, looked up)
Xylose isomerase: MPYFPAVDKVRYEGPDSDSPLAFRHYDADKLILGKPMREHLRMAACYWHTFVWPGADMFGVGTFKRPWQGSGDPLELAIGKAETAFEFFSKLGIDYYSFHDTDVAPEGSSLKEYRNNFAQMIDQLERHQEQTGIKLLWGTANCFSNPRFAAGAASNPDPEVFAYAATQVFSAMNATQRLKGANYVLWGGREGYETLLNTDLRQEREQLGRFMRMVVEHKHKIGFKGDLLIEPKPQEPTKHQYDYDSATVFGFLQQYGLEKEIKVNIEANHATLAGHSFHHEIATAVSLGIFGSIDANRGDPQNGWDTDQFPNSVEEMTLATYEILKAGGFTNGGYNFDSKVRRQSLDEVDLFHGHVAAMDVLALALERAAAMVQNDKLQQFKDQRYAGWQQPFGKSLLAGEFSLESLAKHAFDKDLNPQAVSGRQELLEGVVNRFIYF
B5: Staphylococcus xylosus: xylose isomerase from donor organism Staphylococcus xylosus (protein, UniProt P27157 1-439, looked up)
Xylose isomerase: MSYFDINKVNYEGPKSNNAFSFKYYNPEEKLGNHSMSELLRFSVAYWHTFTADLSDPFGVGVAERDWDSLDEMEKAKARVEAIFEFMEKTRIDYFCFHDVDISPEGASLKESNENLDIIVELIKEKMDQTGKKLLWNTTNNFTHERFVHGAATSSNAEVFAYAAAKVKKSLEIAKKLGSENFVFWGGREGYESLLNTNMKLELDNLATFFKMAKSYADEIGYTGQFLIEPKPKEPTTHQYDTDVATAHAFLQKYDLDKDFKFNIEANHATLAGHTFQHELRYARDNNMLGSVDANQGHPLLGWDTDESTDVYDTTLAMYEILKNGGLAPGGLNFDAKPRRTSFKQEDLILTHIAGMDTFALGLRVAYKMIEDNFFENIMDEKYKSFNEGIGKKIVEGETSLKELEDYAFNINTINNTSDHLEVIKSQINQYILNINNKD
B6: Arabidopsis thaliana: xylose isomerase from donor organism Arabidopsis thaliana (protein, UniProt Q9FKK7 1-477, looked up)
Xylose isomerase: MKKVEFFMLLLCFIAASSLVSADPPTCPADLGGKCSDSDDWQGDFFPEIPKIKYEGPSSKNPLAYRWYNAEEEILGKKMKDWFRFSVAFWHTFRGTGGDPFGAATKYWPWEDGTNSVSMAKRRMRANFEFLKKLGVDWWCFHDRDIAPDGTTLEESNKNLDEVIELAKELQKGSKIKPLWGTAQLFLHPRYMHGGATSSEVGVYAYAAAQVKKAMEVTHYLGGENYVFWGGREGYQTLLNTDMGRELDHLARFFEAAVAYKKKIGFKGTLLIEPKPQEPTKHQYDWDAATAANFLRKYGLIDEFKLNIECNHATLSGHTCHHELETARINGLLGNIDANTGDAQTGWDTDQFLTDVGEATMVMMSVIKNGGIAPGGFNFDAKLRRESTDVEDLFIAHISGMDTMARGLRNAVKILEEGSLSELVRKRYATWDSELGKQIEEGKADFEYLEKKAKEFGEPKVSSAKQELAEMIFQSAM
B7: Clostridium phytofermentans: xylose isomerase from donor organism Clostridium phytofermentans (protein)
chain: MKNYFPNVPEVKYEGPNSTNPFAFKYYDANKVVAGKTMKEHCRFALSWWHTLCAGGADPFGVTTMDRTYGNITDPMELAKAKVDAGFELMTKLGIEFFCFHDADIAPEGDTFEESKKNLFEIVDYIKEKMDQTGIKLLWGTANNFSHPRFMH
modifications: Clostridium phytofermentans
B8: Escherichia coli: xylose isomerase from donor organism Escherichia coli (protein, listed as Escherichia coli)
chain: MQAYFDQLDRVRYEGSKSSNPLAFRHYNPDELVLGKRMEEHLRFAACYWHTFCWNGADMFGVGAFNRPWQQPGEALALAKRKADVAFEFFHKLHVPFYCFHDVDVSPEGASLKEYINNFAQMVDVLAGKQEESGVKLLWGTANCFTNPRYGA

System: engineered yeast (S. cerevisiae)
Assay: Heterologous xylose isomerase expression in yeast (active yes/no)
Type: cell-based
Details: xylose isomerase of donor organism expressed in engineered yeast (S. cerevisiae)

Row | Molecule | Active? (yes/no)
1 | Actinoplanes missouriensis: xylose isomerase from donor organism Actinoplanes missouriensis | No
2 | Bacteroides thetaiotaomicron: xylose isomerase from donor organism Bacteroides thetaiotaomicron | Yes
3 | Streptomyces diastaticus subsp diastaticus: xylose isomerase from donor organism Streptomyces diastaticus subsp diastaticus | No
4 | Streptomyces rubiginosus: xylose isomerase from donor organism Streptomyces rubiginosus | No
5 | Thermus thermophilus: xylose isomerase from donor organism Thermus thermophilus | Yes
6 | B1 | No
7 | B2 | No
8 | B3 | No
9 | B4 | No
10 | B5 | No
11 | B6 | No
12 | B7 | Yes
13 | B8 | No

Reference: US20120184020A1, “ENGINEERED MICROORGANISMS WITH ENHANCED FERMENTATION ACTIVITY” (Verdezyne, Inc., priority 2009, published 2012)
